Several values for one entry are separate records, joined by “and”; a condition that tells them apart may be missing. Equal entries are not always repeated.
Experiments:
BanLec D133G = test: native MS
BanLec Y46K = test: native MS
BanLec D38G = test: native MS
BanLec [1] = target: BanLec (Musa acuminata, UniProt O22321); test: HPLC depletion assay of released gp120; format: binding; conditions: 2-AB labelled gp120 N-glycans, 0-50 μM BanLec
BanLec [2] = target: BanLec (UniProt Q8L5H4); test: SEC-MALS
BanLec [3] = target: BanLec (UniProt Q8L5H4); test: ion mobility MS
BanLec [4] = target: BanLec (UniProt Q8L5H4); test: native MS
BanLec [5] = target: BanLec (UniProt Q8L5H4); test: SAXS
BG505 SOSIP.664 = test: Negative-stain electron microscopy of BanLec with soluble Env trimer mimic; design: species or system HIV; conditions: incubation of BanLec with BG505 SOSIP.664
HIV fusion to HeLa cells = conditions: ref Swanson et al., 2010; cited from earlier work

Question: Which stoichiometry N (BanLec D133G) does the source give for BanLec D133G (natural protein) here?
Answer: Its stoichiometry N is 4.

Question: For BanLec Y46K (natural protein), which stoichiometry N (BanLec Y46K) is on record?
Answer: Its stoichiometry N is 2 and 4.

Question: For BanLec D38G (natural protein), which stoichiometry N (BanLec D38G) is on record?
Answer: Its stoichiometry N is 4.

Question: Which “depletion of glycan upon addition of BanLec” value (BanLec [1]) does the source give for `CC(=O)N[C@H]1[C@H](O[C@H]2[C@H](O)[C@@H](NC(C)=O)C(O)O[C@@H]2CO)O[C@H](CO)[C@@H](O[C@@H]2O[C@H](CO[C@H]3O[C@H](CO[C@H]4O[C@H](CO)[C@@H](O)[C@H](O)[C@@H]4O[C@H]4O[C@H](CO)[C@@H](O)[C@H](O)[C@@H]4O)[C@@H](O)[C@H](O[C@H]4O[C@H](CO)[C@@H](O)[C@H](O)[C@@H]4O[C@H]4O[C@H](CO)[C@@H](O)[C@H](O)[C@@H]4O)[C@@H]3O)[C@@H](O)[C@H](O[C@H]3O[C@H](CO)[C@@H](O)[C@H](O)[C@@H]3O[C@H]3O[C@H](CO)[C@@H](O)[C@H](O)[C@@H]3O[C@H]3O[C@H](CO)[C@@H](O)[C@H](O)[C@@H]3O)[C@@H]2O)[C@@H]1O` (some centres unmarked) [Man9] here?
Answer: Its value is “decreased considerably”.

Question: For Man5, which “depletion of glycan upon addition of BanLec” value (BanLec [1]) is on record?
Answer: The value was “not depleted”.

Question: Which results are given for “BanLec (from UniProt Q8L5H4 1-141) (natural protein)”?
Answer: stoichiometry N (BanLec [2]): 4; stoichiometry N (BanLec [3]): 4; stoichiometry N (BanLec [4]): 4; stoichiometry N (BanLec [5]): 4

B1: BanLec: recombinant tetrameric plant (banana) lectin with anti-HIV activity, expressed in E. coli (protein)
chain: MNGAIKVGAWGGNGGSAFDMGPAYRIISVKIFSGDVVDAVDVTFTYYGKTETRHFGGSGGTPHEIVLQEGEYLVGMKGEFGNYHGVVVVGKLGFSTNKKSYGPFGNTGGTPFSLPIAAGKISGFFGRGGDFIDAIGVYLEP
modifications: left off: polyhistidine tag, N-terminal, cleaved
Question: With B1 as the molecule, how does the “effect on soluble Env trimer mimic by negative-stain EM” value (BG505 SOSIP.664) read?
Answer: The value was “aggregation”.

Question: And the “IC50, inhibition of HIV fusion to HeLa cells” value (HIV fusion to HeLa cells)?
Answer: The value was “low-nanomolar range”.

Source: article PMC5556678 (Structure (London, England : 1993), 2017)
